US20250243292A1 (published 2025)

T1: fully glycosylated CD24 (recombinant, from CHO cells) (N-glycans, sialic acid and O-glycans kept (untreated))
T1 construct: Recombinant CD24 made in CHO cells, untreated; also called fully modified (N-glycan+sialic acid+O-glycan modifications) CD24; CD24 without deglycosylation
T1 chain: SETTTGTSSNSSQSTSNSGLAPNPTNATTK

B1: PP6373 (antibody, human IgG1, kappa, V domains shown)
VH: EVKFEESGGGLVQPGGSIKLSCAASGVTFSEAWMDWVRQSPEKGLEWVAEIRDKPNSYVTYYAESVKGRFTISRDDSKSRVYLQMNNLRTEDTGIYYCTGAMDYWGQGTSVTVSS
VL: DIVMTQTPLSLSVTIGQPASISCKSSQSLLYSNGKTYLNWLQQRPGQSPKRLIYQVSKLDPGIPDRFSGSGSETDFTLKISRVEAEDLGIYYCMQGSSLPWTFGGGTKLEIKR
notes: Biotinylated in tissue and cell staining; also called H4069 + L4071; P3050.ComF1.2H1

Legend:
3B6 = molecular target: T2, 3B6; assay: peptide inhibition ELISA, 3B6 on NO-CD24
T2 construct: Monoclonal antibody; also called anti-CD24 monoclonal antibody 3B6
Protocol: (§1) To determine the antigenic epitope recognized by 3B6 and affinity matured clone PP6373, we synthesized overlapping peptides covering the mature CD24 amino acid sequence (Seq ID No 42), and pre-incubated them with 3B6 antibody prior to adding 3B6 to plates pre-coated with NO-CD24 protein (CD24Fc pretreated sequentially with N-glycosidase, NanA and O-glycosidase).

PP6373 [1] = molecular target: B1; assay: peptide inhibition ELISA, PP6373 on SA-N-CD24, peptides titrated
PP6373 [2] = molecular target: B1; assay: peptide inhibition ELISA, peptides titrated over a large dose range
Protocol: as §1

[3] = molecular target: T1, fully glycosylated CD24 (recombinant, …); assay: ELISA titration on coated Fc removed CD24, untreated
Protocol: FIG. 8. Quantitative comparison of binding between different CD24 glycoforms and anti-CD24 antibodies: parental PP6229 vs affinity matured PP6373. Fc removed CD24 were coated onto ELISA plate, and were then treated with either buffer (CD24), NanA (SA-) or NanA+N-glycanse (SA-N-) prior adding given doses of […] (left panel) or PP6373 (right panel). The maximum concentration tested was 7812.50 ng/ml with titration factor of 5× to a minimum concentration of 0.02 ng/ml.
Therefore, this clone is chosen for further study. The heavy chain sequence for PP6373 is listed in SEQ ID NO: 6 and the light chain sequence is listed on SEQ ID No.16. Compared with the parental sequence, the heavy chain has three mutations in CDR2, while the light chain has one mutation in CDR3 of the light chain. […] It is also of note that PP6373 gained the ability to bind to CD24 even without deglycosylation at 1/1000 level of that to SA-N-CD24. However, since CHO cells is known to have incomplete glycosylation, it is likely that the binding reflect the higher sensitivity of the antibody to detect minor glycoform in the recombinant CD24 prepared from CHO cells.

PP6373 [4] = molecular target: B1; assay: inhibition assay with truncated peptides

Row | Binder | binding result (3B6) | binding result (PP6373 [1]) | other results
1 | GTSSNSSQST (Synthetic overlapping peptide of mature CD24; by order probably peptide 2; also called one of the five overlapping CD24 peptides) [SEQ ID NO 44] | no binding | no binding | 
2 | SETTTGTSSN (Synthetic overlapping peptide of mature CD24; by order probably peptide 1; also called one of the five overlapping CD24 peptides) [SEQ ID NO 43] | no binding | no binding | 
3 | SSQSTSNSGL (Synthetic overlapping peptide of mature CD24; by order probably peptide 3; also called one of the five overlapping CD24 peptides) [SEQ ID NO 45] | no binding | no binding | 
4 | SNSGLAPNPT (Synthetic overlapping peptide of mature CD24) [peptide 4] |  |  | binding result (PP6373 [2]): binds
5 | APNPTNATTK (Synthetic overlapping peptide of mature CD24; by order probably peptide 5; also called one of the five overlapping CD24 peptides) [SEQ ID NO 47] | no binding | no binding | 
6 | B1 |  |  | binding relative to that to SA-N-CD24 [3]: 0.001 ratio
7 | SNSGLAPN (C-terminally truncated form of peptide 4; also called truncated peptide 4) [SNSGLAPN (SEQ ID NO: 48)] |  |  | binding result (PP6373 [4]): binds
